The experiment concerns the target T1, human FcγRIII (V158).
T1 construct: also called FcγRIIIA-Val158; CD16
Description: ELISA of 2H7 variants binding to human FcγRIII (V158). (An ELISA detects its analyte on a solid surface through an enzyme-linked reagent.)

T1 sequence (chain, as listed by the source limits assumed): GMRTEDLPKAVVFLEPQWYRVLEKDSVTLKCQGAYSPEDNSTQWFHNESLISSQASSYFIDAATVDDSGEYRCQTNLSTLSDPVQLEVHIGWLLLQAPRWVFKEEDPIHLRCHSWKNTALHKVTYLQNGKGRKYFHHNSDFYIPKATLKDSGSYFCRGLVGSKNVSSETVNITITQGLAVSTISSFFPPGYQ

B1: 2H7.v16 (antibody, human IgG1, kappa)
light chain: DIQMTQSPSSLSASVGDRVTITCRASSSVSYMHWYQQKPGKAPKPLIYAPSNLASGVPSRFSGSGSGTDFTLTISSLQPEDFATYYCQQWSFNPPTFGQGTKVEIKRTVAAPSVFIFPPSDEQLKSGTASVVCLLNNFYPREAKVQWKVDNALQSGNSQESVTEQDSKDSTYSLSSTLTLSKADYEKHKVYACEVTHQGLSSPVTKSFNRGEC
heavy chain: not shown
notes: Humanized anti-CD20 antibody with no Fc changes; also called humanized 2H7v.16; 2H7 version 16
Consider B1, for which the binding result is given as “binds”.

B2: 2H7.v375 (antibody, human IgG1, kappa)
light: B1 light chain
heavy: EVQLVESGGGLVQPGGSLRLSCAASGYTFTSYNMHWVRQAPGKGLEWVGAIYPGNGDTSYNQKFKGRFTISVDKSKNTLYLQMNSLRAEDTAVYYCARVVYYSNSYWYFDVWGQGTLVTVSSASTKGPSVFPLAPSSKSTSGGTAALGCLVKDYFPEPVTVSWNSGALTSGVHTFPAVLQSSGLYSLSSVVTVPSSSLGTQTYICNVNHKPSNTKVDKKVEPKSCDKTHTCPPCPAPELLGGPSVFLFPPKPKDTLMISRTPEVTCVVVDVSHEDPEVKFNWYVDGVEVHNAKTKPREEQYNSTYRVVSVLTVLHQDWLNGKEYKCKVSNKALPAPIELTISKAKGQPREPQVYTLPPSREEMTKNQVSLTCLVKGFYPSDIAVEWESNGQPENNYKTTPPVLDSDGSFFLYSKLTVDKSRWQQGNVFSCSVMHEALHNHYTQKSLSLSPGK
notes: copies: 2 + 2
As for B2, the “EC50 (read off the curve)” value was about 0.6 µg/mL.

For orientation: EC50 (read off the curve) means the concentration giving half of the maximal effect. Read a low EC50 (read off the curve) as an effect from little substance.

Source of the values: patent US20060067930A1 (Genentech, published 2006).
